B1: ANKRD40 (parent)
chain: SLRENDFIEIELDRQELTYQELLR
B2: OR10K2 (parent)
chain: SLARLQQLLFVIFLLLYLFTLGTN

Variants of: B1
Assay: protein stability index of a GFP-peptide fusion (GPS, HEK-293T) (PSI 1-6); higher = more stable
Conditions: c terminus: a fixed tail appended
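Further: lentivirally expressed fusions sorted by FACS into six bins by GFP to DsRed ratio, PSI derived from sequencing read proportions per bin multiplied by bin number.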

Protein stability index, by site and new letter:
D13: S 2.54, W 1.81, Q 2.93, C 2.35, K 2.55, F 1.99, L 2.04, G 2.77, V 1.78, Y 1.87, A 2.56, H 2.22, E 2.82, I 1.77
L17: P 2.74, M 2.92, F 2.61, Q 3.57, V 2.9, N 3.54, C 3.12, S 3.41, R 3.25, D 3.71, K 3.61
I10: G 3.55, F 3.41, E 4.63, P 4.24, Q 4.26, V 3.32, D 4.12, A 4.02, R 3.53, C 3.69, W 3.19
R3: E 2.85, M 2.54, S 3.54, C 3.14, H 3.08, L 2.29, G 3.26, P 3.52, T 2.91, I 2.9, F 2.37, N 3.06, W 2.26
L2: S 3.2, Y 2.68, W 2.73, P 3.49, Q 3.48, H 3.01, I 2.66, T 3
E11: Y 2.16, K 2.45, I 2.16, A 3.15, H 2.68, T 2.35, R 2.44, C 2.37, P 3.75, Q 2.74, N 3.33, V 2.29, D 3.59, W 1.98
E16: R 3.04, F 2.5, S 3.48, K 2.93, G 2.91, N 3.5, V 2.48, P 3.42, D 3.24, T 2.76, Y 2.15, W 2.55, C 2.46, H 2.89, A 2.8
F7: C 3.87, W 3.03, T 3.99, L 3.79, Q 4.17, M 3.33, V 3.59, R 3.69, H 3.96, G 4.18, K 4.2, P 4.05, Y 3.54, I 2.91
D6: H 2.57, K 2.64, I 1.28, T 2.34, R 3.14, C 2.28
R14: G 3, D 3.85, H 2.97, E 3.37, S 3.06, T 3.01, Q 3.41, I 2.86, M 1.85, K 3.31, W 1.79, F 1.44, V 2.06
E4: Y 2.17, M 2.55, A 2.74, C 2.16, K 2.16, S 3.21, D 3.25, H 2.84
Q15: M 2.25, Y 2, I 1.89, G 3.68, R 3.41, N 3.35, T 2.91, V 2.44, P 2.78, F 2.09, A 2.63, W 2.37, E 3.28, L 2.78
L12: Y 3.34, P 3.72, G 4.4, D 4.51, H 3.82, F 2.73, V 3.54, C 3.88
L22: R 3.74, D 4.54, K 3.97, V 2.77, M 3.34, P 3.56, T 3.45, I 2.53, S 3.8, A 3.8, W 2.86, N 3.92, G 3.57, Q 4.02
I8: S 3.34, A 3.83, M 4.11, E 4.46, T 4.23, L 3.77, Q 4.23, R 3.89, G 3.88, N 4.1, H 3.99, D 4.56
N5: K 2.88, M 2.4, S 2.77, Y 2.75, I 2.33, F 2.2, E 2.78, H 2.62, R 2.79, G 3.03, T 3.09, W 1.72
Q20: Y 2.29, W 2.25, S 3.3, P 2.95, I 1.83, A 2.72, V 2.62, K 3.2, E 3.58, D 3.7, F 1.99, M 2.3, R 2.3
E21: I 1.9, V 1.99, R 2.62, T 2.09, N 2.83, S 2.71, C 1.94, L 1.69, D 2.85, P 2.36, Y 1.77
T18: D 3.71, A 3.06, I 2.1, N 3.5, H 3.2, L 2.49, C 2.46, R 3.29, F 1.85, Y 2.59
R24: A 3.23, Y 2.43, N 3.49, E 3.88, H 2.77, K 3.12, W 2.26, G 3.27, I 2.35, M 2.52, T 3.06
S1: D 3.12, P 3.26, C 3.07, L 2.84, T 3.38, A 2.82, Y 2.3, M 2.66, W 2.26, E 3.41
Y19: W 2.61, I 2.73, S 3.79, E 4.6, H 3.71, R 4.13, M 3.22, D 4.59, T 3.5, V 3.38
L23: F 2.54, T 3.59, A 3.73, W 2.04, G 3.48, M 3.16, N 4.05, E 3.99, K 3.85, V 3.53, R 3.75
E9: K 2.4, G 3.33, V 1.87, Q 2.51, M 2.14, L 2.14, I 1.63, A 2.58, P 3.59, T 2, S 2.73, Y 2.12, N 2.82, R 1.97, W 1.57

Variants of: B2
Assay: as above
Conditions: c terminus: a fixed tail appended

Protein stability index, by site and new letter:
N24: F 2.87, A 2.11, L 3.23, W 1.99, I 2.75, T 2.4
F19: L 2.05, I 1.51, M 2.17
L18: G 2.29, M 2.1, I 2.73, D 1.64, K 2.07, S 2.25
T23: H 1.75, R 1.53, D 1.44, S 1.86, C 4.22
L15: Q 2.4, V 1.48, T 2.62
T20: Q 1.45, N 3.75, L 1.5, F 3.51, I 2.11, R 2.2, M 1.29
L16: S 3.14, E 3.61, Y 3.45, I 2.15, T 3.42
Y17: C 2.72, L 2.34, F 1.68, I 3.43, V 1.57, W 2.13
L21: I 2.08, F 3.52, C 3.39, V 2.08, T 3.5, Y 1.62, N 4.16, S 2.34
G22: W 2.11, C 2.65, K 2.48, H 2.3, N 3.78
L14: I 2.72, H 2.31

Reference: the supplement of paper PMC10567573
